Experimental data reported in article PMC5015425, “Structural insights into Parkin substrate lysine targeting from minimal Miro substrates” (Scientific Reports, 2016).

Target: the molecule itself
Test: SEC-MALS; S200 10/300 GL column, 25 mM HEPES pH 7.4, 200 mM NaCl, 0.5 mM TCEP, 1 mM MgCl2, 0.5 mL/min, 10 °C; injected: hMiro1-C 16 mg/mL, hMiro2-C 7 mg/mL, hMiro1-CM 18 mg/mL

B1: human Miro1 cGTPase domain, aa 411-592 (hMiro1-C) (domain or fragment, UniProt Q8IXI2 411-592, looked up)
chain: KKQTQRNVFRCNVIGVKNCGKSGVLQALLGRNLMRQKKIREDHKSYYAINTVYVYGQEKYLLLHDISESEFLTEAEIICDVVCLVYDVSNPKSFEYCARIFKQHFMDSRIPCLIVAAKSDLHEVKQEYSISPTDFCRKHKMPPPQAFTCNTADAPSKDIFVKLTTMAMYPHVTQADLKSSTF
notes: human Miro1 (RhoT1), C-terminal GTPase (cGTPase) domain, residues 411-592; Dimer in the crystal and in solution; Details of expression are in the Supplementary Methods; also called hMiro1-CD; hMiro1 cGTPase; source: bacteria, purified (TALON beads, HiTrap S cation exchange, Superdex 200 when necessary)
stoichiometry N: 2
